Assay results as given in patent publication US20160264649A1.

Assays:
Experiment in all cases: cell-based or functional assay
[1] = biological target: HIV-1 92RW008 Env (HIV-1)
[2] = biological target: HIV-1 92RW009 Env (HIV-1)
[3] = biological target: HIV-1 92RW020 Env (HIV-1)
[4] = biological target: HIV-1 92RW021 Env (HIV-1)
[5] = biological target: HIV-1 92RW024 Env (HIV-1)
[6] = biological target: HIV-1 92RW026 Env (HIV-1)
[7] = biological target: HIV-1 92UG031 Env (HIV-1)
[8] = biological target: HIV-1 92UG037 Env (HIV-1)
[9] = biological target: HIV-1 93RW029 Env (HIV-1)
[10] = biological target: HIV-1 93UG077 Env (HIV-1)
[11] = biological target: HIV-1 94KE105 Env (HIV-1)
[12] = biological target: HIV-1 94UG103 Env (HIV-1)
[13] = biological target: HIV-1 MGRM-A-002 Env (HIV-1)
[14] = biological target: HIV-1 MGRM-A-003 Env (HIV-1)
[15] = biological target: HIV-1 MGRM-A-006 Env (HIV-1)
[16] = biological target: HIV-1 MGRM-A-007 Env (HIV-1)
[17] = biological target: HIV-1 MGRM-A-009 Env (HIV-1)
[18] = biological target: HIV-1 MGRM-A-010 Env (HIV-1)
[19] = biological target: HIV-1 MGRM-A-011 Env (HIV-1)
[20] = biological target: HIV-1 MGRM-A-013 Env (HIV-1)
[21] = biological target: HIV-1 MGRM-A-014 Env (HIV-1)
HIV-1 VLGCA1 Env (HIV-1) = biological target: HIV-1 VLGCA1 Env (HIV-1)
[22] = biological target: HIV-1 Env of isolate 92UG031 (subtype A) (HIV-1)
[23] = biological target: HIV-1 Env of isolate 92WR020 (subtype A) (HIV-1)
[24] = biological target: HIV-1 Env of isolate 97ZA012 (subtype C) (HIV-1)
[25] = biological target: HIV-1 Env of isolate 98IN022 (subtype C) (HIV-1)
[26] = biological target: HIV-1 Env of isolate MG RM-C-022 (subtype C) (HIV-1)
[27] = biological target: HIV-1 Env of isolate MG RM-C-023 (subtype C) (HIV-1)
[28] = biological target: HIV-1 Env of isolate MGRM-AE-002 (subtype AE) (HIV-1)
[29] = biological target: HIV-1 Env of isolate MGRM-AE-008 (subtype AE) (HIV-1)
[30] = biological target: HIV-1 Env of isolate MGRM-Chronic-B-008 (subtype B) (HIV-1)
[31] = biological target: HIV-1 Env of isolate MGRM-Chronic-B-018 (subtype B) (HIV-1)
[32] = biological target: HIV-1 Env of isolate MGRM-Chronic-B-023 (subtype B) (HIV-1)
[33] = biological target: HIV-1 Env of isolate MGRM-D-003 (subtype D) (HIV-1)
[34] = biological target: HIV-1 Env of isolate MGRM-D-005 (subtype D) (HIV-1)
[35] = biological target: HIV-1 Env of isolate MGRM-D-013 (subtype D) (HIV-1)
[36] = biological target: HIV-1 Env of isolate MGRM-D-016 (subtype D) (HIV-1)
[37] = biological target: HIV-1 Env of isolate MGRM-D-020 (subtype D) (HIV-1)
[38] = biological target: HIV-1 Env of isolate MGRM-D-026 (subtype D) (HIV-1)
[39] = biological target: HIV-1 Env of isolate MGRM-D-028 (subtype D) (HIV-1)
[40] = biological target: HIV-1 Env of isolate MGRM-F1-006 (subtype F) (HIV-1)
[41] = biological target: HIV-1 Env of isolate MGRM-F1-010 (subtype F) (HIV-1)
[42] = biological target: HIV-1 Env of isolate MGRM-F1-013 (subtype F) (HIV-1)
[43] = biological target: HIV-1 Env of isolate MGRM-F1-020 (subtype F) (HIV-1)
[44] = biological target: HIV-1 Env of isolate VLGCA1 (subtype A) (HIV-1)
[45] = biological target: HIV-1 Env of pseudovirus isolate MGRM-G-006 (subtype G) (HIV-1)
[46] = biological target: HIV-1 Env of pseudovirus isolate MGRM-G-015 (subtype G) (HIV-1)
[47] = biological target: HIV-1 Env of pseudovirus isolate MGRM-G-017 (subtype G) (HIV-1)
[48] = biological target: HIV-1 Env of pseudovirus isolate MGRM-G-024 (subtype G) (HIV-1)
[49] = biological target: HIV-1 Env of pseudovirus isolate MGRM-G-027 (subtype G) (HIV-1)

b12 (antibody)
neutralization IC50 [1]: 9.46 µg/mL
neutralization IC50 [2]: > 50 µg/mL
neutralization IC50 [3]: > 50 µg/mL
neutralization IC50 [4]: > 50 µg/mL
neutralization IC50 [5]: > 50 µg/mL
neutralization IC50 [6]: > 50 µg/mL
neutralization IC50 [7]: > 50 µg/mL
neutralization IC50 [8]: > 50 µg/mL
neutralization IC50 [9]: > 50 µg/mL
neutralization IC50 [10]: 47 µg/mL
neutralization IC50 [11]: > 50 µg/mL
neutralization IC50 [12]: 6.92 µg/mL
neutralization IC50 [13]: > 50 µg/mL
neutralization IC50 [14]: > 50 µg/mL
neutralization IC50 [15]: 13.6 µg/mL
neutralization IC50 [16]: > 50 µg/mL
neutralization IC50 [17]: 4.34 µg/mL
neutralization IC50 [18]: > 50 µg/mL
neutralization IC50 [19]: 4.01 µg/mL
neutralization IC50 [20]: 7.04 µg/mL
neutralization IC50 [21]: > 50 µg/mL
neutralization IC50 (HIV-1 VLGCA1 Env (HIV-1)): > 50 µg/mL

PGV04 (antibody)
IC50 (pseudovirus neutralization) [22]: 4.46 µg/mL
IC50 (pseudovirus neutralization) [23]: 0.055 µg/mL
IC50 (µg/mL), pseudovirus neutralization [24]: 0.041 µg/mL
IC50 (µg/mL), pseudovirus neutralization [25]: 5.69 µg/mL
IC50 (µg/mL), pseudovirus neutralization [26]: 18.3 µg/mL
IC50 (µg/mL), pseudovirus neutralization [27]: 0.128 µg/mL
IC50 (pseudovirus neutralization) [28]: 0.569 µg/mL
IC50 (pseudovirus neutralization) [29]: 1.51 µg/mL
IC50 [30]: 0.166 µg/mL
IC50 [31]: 0.164 µg/mL
IC50 [32]: 0.139 µg/mL
IC50 (pseudovirus neutralization) [33]: > 50 µg/mL
IC50 (pseudovirus neutralization) [34]: > 50 µg/mL
IC50 (pseudovirus neutralization) [35]: 0.088 µg/mL
IC50 (pseudovirus neutralization) [36]: 0.201 µg/mL
IC50 (pseudovirus neutralization) [37]: 0.097 µg/mL
IC50 (pseudovirus neutralization) [38]: 1.76 µg/mL
IC50 (pseudovirus neutralization) [39]: 1.01 µg/mL
IC50 (pseudovirus neutralization) [40]: > 50 µg/mL
IC50 (pseudovirus neutralization) [41]: 0.184 µg/mL
IC50 (pseudovirus neutralization) [42]: 0.084 µg/mL
IC50 (pseudovirus neutralization) [43]: 5.99 µg/mL
IC50 (pseudovirus neutralization) [44]: 0.024 µg/mL
IC50 [45]: 0.083 µg/mL
IC50 [46]: 0.333 µg/mL
IC50 [47]: 0.065 µg/mL
IC50 [48]: 0.033 µg/mL
IC50 [49]: 0.125 µg/mL

1496_C09 (PG9) (TCN-109) (antibody)
neutralization IC50 [1]: 0.01 µg/mL
neutralization IC50 [2]: 0.03 µg/mL
neutralization IC50 [3]: 0.08 µg/mL
neutralization IC50 [4]: 0.05 µg/mL
neutralization IC50 [5]: 0.18 µg/mL
neutralization IC50 [6]: 0.27 µg/mL
neutralization IC50 [7]: 3.08 µg/mL
neutralization IC50 [9]: 1.19 µg/mL
neutralization IC50 [11]: 29.6 µg/mL
neutralization IC50 [12]: 0.24 µg/mL
neutralization IC50 [14]: 0.65 µg/mL
neutralization IC50 [16]: 0.37 µg/mL
neutralization IC50 [17]: 0.03 µg/mL
neutralization IC50 [20]: 0.16 µg/mL
neutralization IC50 [21]: 0.62 µg/mL
neutralization IC50 (HIV-1 VLGCA1 Env (HIV-1)): 0.07 µg/mL
IC50 (pseudovirus neutralization) [22]: 3.6 µg/mL
IC50 (pseudovirus neutralization) [23]: 0.141 µg/mL
IC50 (µg/mL), pseudovirus neutralization [24]: 3.4 µg/mL
IC50 (µg/mL), pseudovirus neutralization [25]: 0.003 µg/mL
IC50 (µg/mL), pseudovirus neutralization [26]: 0.346 µg/mL
IC50 (µg/mL), pseudovirus neutralization [27]: 0.614 µg/mL
IC50 (pseudovirus neutralization) [28]: 0.04 µg/mL
IC50 (pseudovirus neutralization) [29]: 31.5 µg/mL
IC50 [30]: 8.78 µg/mL
IC50 [31]: 0.216 µg/mL
IC50 [32]: 0.027 µg/mL
IC50 (pseudovirus neutralization) [33]: 0.033 µg/mL
IC50 (pseudovirus neutralization) [34]: 1.8 µg/mL
IC50 (pseudovirus neutralization) [35]: 0.021 µg/mL
IC50 (pseudovirus neutralization) [36]: 0.098 µg/mL
IC50 (pseudovirus neutralization) [37]: 1.67 µg/mL
IC50 (pseudovirus neutralization) [38]: 23.7 µg/mL
IC50 (pseudovirus neutralization) [39]: 20.2 µg/mL
IC50 (pseudovirus neutralization) [40]: 7.25 µg/mL
IC50 (pseudovirus neutralization) [41]: 0.012 µg/mL
IC50 (pseudovirus neutralization) [42]: 1.25 µg/mL
IC50 (pseudovirus neutralization) [43]: 6.4 µg/mL
IC50 (pseudovirus neutralization) [44]: 0.069 µg/mL
IC50 [45]: 1.98 µg/mL
IC50 [46]: 6.6 µg/mL
IC50 [47]: 0.104 µg/mL
IC50 [48]: 0.163 µg/mL
IC50 [49]: 0.007 µg/mL
